Assay [1] concerns the target human CD19 antigen on the surface of B lymphoma cells (Raji, Daudi, IM-9, Namalwa) (human) (UniProt P15391). Briefly: flow cytometry on Raji cells; control antibody at 15 µg/ml.
Assay [2] shares this target. Briefly: flow cytometry on Raji cells; control antibody at 0.185 µg/ml. On the technique in general: A flow cytometer gives signals particle by particle.
Assay [3] shares this target. Briefly: flow cytometry on Raji cells; control antibody at 5 µg/ml.
For assay [4] the target is unchanged. Briefly: flow cytometry on Raji cells; control antibody at 0.556 µg/ml.
In assay [5] the target is human CD3 (CD3ε molecule) on the surface of Jurkat T cells (human) (UniProt P07766). Briefly: cell-based or functional assay.
The target of assay [6] is human CD19 antigen on the surface of B lymphoma cells (Raji, Daudi, IM-9, Namalwa) (human) (UniProt P15391). The experiment in a line: flow cytometry on Raji cells; control antibody at 1.667 µg/ml.
Assay [7] addresses human CD3 (CD3ε molecule) on the surface of Jurkat T cells (human) (UniProt P07766). Briefly: flow cytometry on Jurkat cells.
Assay [8] concerns the target human CD19 antigen on the surface of B lymphoma cells (Raji, Daudi, IM-9, Namalwa) (human) (UniProt P15391). The experiment in a line: cell-based or functional assay.

As a reminder, the EC50 is the concentration needed to bring the measured effect to its halfway point. The low end stands for higher potency in that assay, the high end for lower potency in that assay.

On to “OKT3 monoclonal antibody (mouse anti-human CD3 monoclonal antibody)”, for which the average fluorescence value in assay [1] came out at 3710; in assay [2] it was 3860; in assay [3], 3460; in assay [4] it was 3390; in assay [6], 3570. For the same substance, in assay [5], the ED50 of CD69 expression (Mean FL2-A) on Jurkat E6-1 cells co-cultured with Raji cells (10:1) came out at 1280 ng/mL. The same substance had a 50% effective concentration (EC50) in assay [7] of 6.09 nM.

Regarding “BLI-193 (tandem single chain antibody structure, blinatumomab) (bispecific antibody)”, in assay [8], the ED50 of killing of Daudi cells by human PBMC (Fluo 3-AM release) came to 2.57 ng/mL, the ED50 of killing of Namalwa cells by human PBMC (Fluo 3-AM release) worked out at 0.107 ng/mL and the ED50 of killing of Raji cells by human PBMC (Fluo 3-AM release) worked out at 0.0868 ng/mL.

Source of the values: patent US20190284279A1.
